Laboratory results as given in the supplement of paper PMC11865577.

Experiments:
Experiment in all cases: pull-down binding Z-score (relative to library population); higher = stronger binding
[1] = test system: TO-3-N3-2 (biotin conjugate); conditions: RNA library: Library-2
Summary of the method: (§1)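 Streptavidin beads with 100 pmol of biotin-conjugated small molecule were incubated for 60 min at 25 °C with 1 μg of heat-folded Cy5- or Cy3-end-labelled RNA library in phosphate/NaCl/KCl buffer. Bound RNA was eluted in hot SDS after three washes and hybridised to a DNA barcode microarray at 55.5 °C for 20 h. Each binding score is a library-referenced Z-score, computed after beads-only subtraction and a trimmed mean of barcoded replicate probes.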

[2] = test system: TO-3-N3 (biotin conjugate); conditions: RNA library: Library-2
Summary of the method: as §1

[3] = test system: G-clamp-N3 (biotin conjugate); conditions: RNA library: Library-1 (pre-miRNA loops + repeats)
Summary of the method: as §1

[4] = test system: TO-N3-2 (biotin conjugate); conditions: RNA library: Library-2
Summary of the method: as §1

TO-N3 (biotin conjugate) = conditions: RNA library: Library-2
Summary of the method: as §1

Sequence	pull-down binding Z-score [1]	pull-down binding Z-score [2]	pull-down binding Z-score [3]	pull-down binding Z-score [4]	pull-down binding Z-score (TO-N3 (biotin conjugate))
GUUUGCAAGGGGUGUUUCUGUCCAUGGUCAGGC [hsa-mir-4283-1_4283-2]	0.154	0.578	1.19	0.725	0.778
GUUUGCCUGUUAAUGAAUUCAAAC [hsa-mir-3129]	0.248	0.445	-0.522	0.0357	0.513
GUUUGGCAGGACAGUUUCCAAGC [hsa-mir-6779]	-0.323	-0.587	-0.893	0.15	-0.451
GUUUGGGUGCGGUUGGGAGUCUCUAAU [hsa-mir-200c]	1.39	1.66	0.194	1.41	1.67
GUUUUACUAUGAUGAGGUGUGCCAUCCACCCCAUCAUAGUAAAC [hsa-mir-606]	-0.139	-0.262	-0.172	-0.698	-0.422
GUUUUUUAAGAGGAAGGGAGACCUAAGCUAGCA [hsa-mir-4481]	0.475	0.205	0.269	0.747	0.507
UAAAGAGUAUUCAACAUC [hsa-mir-1245b]	0.0553	-0.609	-0.935	-0.373	-0.49
UAAGAGUAAUAGCUCUCUAGGUUAUUAUGAAUA [hsa-mir-5692c-1]	0.109	-0.283	-0.762	-0.712	-0.449
UAAGUGUCCUAGCACUUA [hsa-mir-374b]	-0.524	0.251	0.214	-0.647	-0.0395
UAAGUGUUAUAGCACUUA [hsa-mir-374a]	-0.541	-0.901	-0.753	-1.79	-1.38
UAAGUUGUGAUCAUACCA [hsa-mir-1273g]	-0.0944	-0.424	-1.51	0.165	-0.24
UAAUAACUGACAAACAGACAAUUG [hsa-mir-4774]	-0.145	-0.343	-0.873	-0.303	-0.376
UAAUAGCAAUCCUUAAAUGCCAUUA [hsa-mir-4477b]	-0.0844	-0.947	-0.537	-1.16	-1.24
UAAUAUGCACUAUAAAUAUAUUG [hsa-mir-450a-1]	-0.431	-0.774	-0.725	-1.33	-1.16
UAAUAUGUAAUAUAAAUGUAUUG [hsa-mir-450a-2]	-0.134	0.202	-0.938	-0.926	-0.167
UAAUCACAGGCCACAUUUCUGAAUA [hsa-mir-1295b]	-0.391	-0.745	-1.08	-0.437	-0.716
UAAUGAUUGGAGUCAUUUUCAGAGCAUUA [hsa-mir-3202-1]	-0.262	-0.304	1.44	-0.537	-0.407
UAAUGCUCUGAAAAUGACUCCAAUCAUUA [hsa-mir-3202-2]	-0.069	-0.685	-1.64	-0.457	-0.741
UACAAUUUUUUUUUUUUUAAAUUUUA [hsa-mir-1303]	0.111	-0.51	0.8	-1.17	-0.893

Sequence	pull-down binding Z-score [1]	pull-down binding Z-score [2]	pull-down binding Z-score [3]	pull-down binding Z-score [4]	pull-down binding Z-score (TO-N3 (biotin conjugate))
UACAUAGUUCAUGCUGAGGCCGGGAUUUCAUGCAGAAAACUGGUUGCAAAAGGUGCUGAAG [hsa-mir-6085]	0.378	-0.189	-0.725	1.13	0.573
UACUAACAGCACUGGAGGGUGUA [hsa-mir-142]	0.107	-0.0529	2.68	0.533	0.114
UAGACAAUGGUUUCAUCAUUUCGUCUG [hsa-mir-4427]	-0.103	-0.317	-0.055	-0.052	-0.379
UAGAGGGUAAAAUUAAUAACCUUCUA [hsa-mir-628]	0.114	0.214	0.0533	-0.888	-0.152
UAGAGUAGGAGAGCCCACUGA [hsa-mir-6846]	0.147	0.712	0.203	1.21	1.28
UAGAUACUCAGGAGGGUGAGUAUCUA [hsa-mir-5689]	-0.33	-0.511	1.64	-0.726	-0.797
UAGAUGAAUAAAUGAAUGACUCAUCA [hsa-mir-545]	0.146	-0.346	-0.383	-0.21	-0.414
UAGAUGUUAUAAAAAUAUAUAUCUG [hsa-mir-4680]	-0.189	-0.708	0.187	-1.07	-1.08
UAGGAGCUGUGCCUCCUGGCCUAUUCCUGUUCGUG [hsa-mir-8056]	-0.167	-0.344	0.294	0.623	0.0941
UAGGAUUUGGGAGUUAUACUA [hsa-mir-5690]	-0.0337	-0.528	0.541	-0.349	-0.492
UAGGCCCACUGCUCAGUGGAGC [hsa-mir-7847]	-0.0119	-0.238	0.533	0.845	0.139
UAGGCUGUGCAGGUCCCAAUGGGCCUA [hsa-mir-26a-1]	-0.0454	0.169	1.56	0.528	0.151
UAGGCUGUUUCCAUCUGUGAGGCCUA [hsa-mir-26a-2]	-0.375	-0.164	-0.141	-0.00853	-0.233
UAGGGCGCGGAGGGCGGACCGGGAA [hsa-mir-638]	6.57	5.36	0.973	4.4	5.19
UAGGGCUGGAUGGUAGGGCCCA [hsa-mir-6890]	0.343	0.343	2.15	1.13	0.642
UAGGUGGUCGAAGUCAUCCACA [hsa-mir-7153]	0.264	-0.108	-0.765	0.498	0.131
UAGGUUGUGUGCUGUCCAGCCUG [hsa-mir-26b]	-0.429	-0.484	-0.497	0.271	-0.388
UAGGUUGUUAUUUAAUCCAACU [hsa-mir-190a]	-0.00409	-0.24	-1	-0.661	-0.267
